Ends that are not written are not given here. * marks the point of attachment. Biotin = O=C1N[C@H]2[C@H](CS[C@H]2CCCCC(=O)*)N1
Assays:
[1] = target: T1, GST-KIAA0559 PDZ domain fusion protein (KIAA0559 AA766-870; PDZ1 of 1) (UniProt P08515 1-218 = GST); test: A/G assays
T1 construct: also called K559

[2] = target: GST-LIMK2 PDZ domain fusion protein (human LIM domain kinase 2 AA185-275; PDZ domain 1 of 1) (human, UniProt P08515 1-218 = GST); test: A/G assays
[3] = target: GST-LIM PDZ domain fusion protein (Human LIM protein AA29-112; PDZ domain 1 of 1) (human, UniProt P08515 1-218 = GST); test: A/G assays
Sequence of GST-LIM PDZ domain fusion protein (Human LIM protein AA29-112; PDZ domain 1 of 1) (P08515 1-218, tags or fused parts left off): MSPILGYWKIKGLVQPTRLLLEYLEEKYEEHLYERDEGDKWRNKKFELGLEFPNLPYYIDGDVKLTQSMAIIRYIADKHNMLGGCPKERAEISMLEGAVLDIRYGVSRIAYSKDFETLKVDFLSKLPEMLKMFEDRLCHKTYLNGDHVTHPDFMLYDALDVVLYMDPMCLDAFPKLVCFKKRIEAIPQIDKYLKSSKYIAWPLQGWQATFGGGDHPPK

[4] = target: T2, GST-TIAM1 PDZ domain fusion protein (T-lymphoma invasion and metastasis inducing protein 1 AA1001-1088); PDZ 1 … (UniProt P08515 1-218 = GST); test: A/G assays
T2 sequence (P08515 1-218, tags or fused parts left off): as above

[5] = target: GST-MINT3 PDZ domain fusion protein (human MINT3 AA11-52; PDZ domain 1 of 1) (human, UniProt P08515 1-218 = GST); test: A/G assays
Sequence of GST-MINT3 PDZ domain fusion protein (human MINT3 AA11-52; PDZ domain 1 of 1) (P08515 1-218, tags or fused parts left off): as above

[6] = target: GST-NOS1 PDZ domain fusion protein (human neuronal nitric oxide synthase; PDZ domain 1 of 1) (human, UniProt P08515 1-218 = GST); test: A/G assays
Sequence of GST-NOS1 PDZ domain fusion protein (human neuronal nitric oxide synthase; PDZ domain 1 of 1) (P08515 1-218, tags or fused parts left off): as above

[7] = target: T3, GST-KIAA0316 PDZ domain fusion protein (KIAA0316 AA197-284; PDZ domain 1 of 1) (UniProt P08515 1-218 = GST); test: A/G assays
T3 construct: also called K316
T3 sequence (P08515 1-218, tags or fused parts left off): as above

[8] = target: GST-DVL1 PDZ domain fusion protein (human dishevelled segment polarity protein homolog AA248-340); PDZ domain … (human, UniProt P08515 1-218 = GST); test: A/G assays
Sequence of GST-DVL1 PDZ domain fusion protein (human dishevelled segment polarity protein homolog AA248-340); PDZ domain … (P08515 1-218, tags or fused parts left off): as above

[9] = target: T4, GST-CASK PDZ domain fusion protein (CASK AA495-584; PDZ domain 1 of 1) (mouse, UniProt P08515 1-218 = GST); test: A/G assays
T4 construct: also called mCASK
T4 sequence (P08515 1-218, tags or fused parts left off): as above

[10] = target: T5, GST-41.8 kD PDZ domain fusion protein (hypothetical 41.8 kD protein AA4-85; PDZ domain 1 of 1) (UniProt P08515 1-218 = GST); test: A/G assays
T5 construct: also called hypoth

[11] = target: T6, GST-MPP1 PDZ domain fusion protein (55 Kd erythrocyte membrane protein AA101-186; PDZ domain 1 of 1) (UniProt P08515 1-218 = GST); test: A/G assays
T6 sequence (P08515 1-218, tags or fused parts left off): as above

[12] = target: GST-prIL16 PDZ domain fusion protein (putative interleukin 16 precursor AA170-383; PDZ domains 1-2 of 2) (UniProt P08515 1-218 = GST); test: A/G assays
[13] = target: T7, GST-KIAA0303 PDZ domain fusion protein (KIAA0303 AA652-742; PDZ domain 1 of 1) (UniProt P08515 1-218 = GST); test: A/G assays
T7 construct: also called K303
T7 sequence (P08515 1-218, tags or fused parts left off): as above

[14] = target: T8, GST-TAX43 PDZ domain fusion protein (human tax interaction protein 43 AA15-85; PDZ domain 1 of 1) (human, UniProt P08515 1-218 = GST); test: A/G assays
T8 construct: also called TX 43

[15] = target: GST-AF6 PDZ domain fusion protein (af-6 protein AA985-1077; PDZ domain 1 of 1) (UniProt P08515 1-218 = GST); test: A/G assays
Sequence of GST-AF6 PDZ domain fusion protein (af-6 protein AA985-1077; PDZ domain 1 of 1) (P08515 1-218, tags or fused parts left off): as above

[16] = target: T9, GST-CBP PDZ domain fusion protein (Cytohesin binding protein HE AA85-175; PDZ domain 1 of 1) (UniProt P08515 1-218 = GST); test: A/G assays
T9 construct: also called Prot
T9 sequence (P08515 1-218, tags or fused parts left off): as above

[17] = target: T10, GST-TAX2 PDZ domain fusion protein (human tax interaction protein 2 AA54-140; PDZ domain 1 of 1) (human, UniProt P08515 1-218 = GST); test: A/G assays
T10 construct: also called TX 2

[18] = target: T11, GST-MPP2 PDZ domain fusion protein (maguk p55 subfamily member 2 (DLG2) AA185-273; PDZ domain 1 of 1) (UniProt P08515 1-218 = GST); test: A/G assays
T11 construct: also called MMP2
T11 sequence (P08515 1-218, tags or fused parts left off): as above

[19] = target: T12, GST-SYN1a PDZ domain fusion protein (alpha1-syntrophin AA96-189; PDZ domain 1 of 1) (UniProt P08515 1-218 = GST); test: A/G assays
T12 construct: also called SYN 1 alpha; SYNTR 1 alpha
T12 sequence (P08515 1-218, tags or fused parts left off): as above

[20] = target: T13, GST-NeDLG PDZ domain fusion protein (presynaptic protein sao102, neuroendocrine-dlg; PDZ domains 1-2 of 3) (UniProt P08515 1-218 = GST); test: A/G assays
T13 construct: also called NeDLG1
T13 sequence (P08515 1-218, tags or fused parts left off): as above

[21] = target: T14, GST-TAX40 PDZ domain fusion protein (human tax interaction protein 40 AA35-137; PDZ domain 1 of 1) (human, UniProt P08515 1-218 = GST); test: A/G assays
T14 construct: also called TX 40
T14 sequence (P08515 1-218, tags or fused parts left off): as above

[22] = target: GST-PSD95 PDZ domain fusion protein (human post-synaptic density protein 95 AA387-724; PDZ domains 1-3 of 3) (human, UniProt P08515 1-218 = GST); test: A/G assays
Sequence of GST-PSD95 PDZ domain fusion protein (human post-synaptic density protein 95 AA387-724; PDZ domains 1-3 of 3) (P08515 1-218, tags or fused parts left off): as above

[23] = target: T15, GST-TAX33 PDZ domain fusion protein (tax interaction protein 33 AA73-162; PDZ domain 1 of 1) (UniProt P08515 1-218 = GST); test: A/G assays
T15 construct: also called TX33
T15 sequence (P08515 1-218, tags or fused parts left off): as above

[24] = target: T16, GST-PTN-4 PDZ domain fusion protein (protein-tyrosine phosphatase meg1 AA774-862; PDZ domain 1 of 1) (UniProt P08515 1-218 = GST); test: G assay
T16 sequence (P08515 1-218, tags or fused parts left off): as above

[25] = target: T17, GST-RGS12 PDZ domain fusion protein (human regulator of G-protein signalling 12 AA35-103; PDZ domain 1 of 1) (human, UniProt P08515 1-218 = GST); test: G assay
T17 construct: also called RSG12
T17 sequence (P08515 1-218, tags or fused parts left off): as above

[26] = target: T2, GST-TIAM1 PDZ domain fusion protein …; test: A assay
[27] = target: T5, GST-41.8 kD PDZ domain fusion protein …; test: A assay
[28] = target: T6, GST-MPP1 PDZ domain fusion protein (55 …); test: A assay
[29] = target: T7, GST-KIAA0303 PDZ domain fusion protein …; test: A assay
[30] = target: T13, GST-NeDLG PDZ domain fusion protein …; test: A assay
[31] = target: T16, GST-PTN-4 PDZ domain fusion protein …; test: A/G assays
[32] = target: T17, GST-RGS12 PDZ domain fusion protein …; test: A/G assays

Measured: binding result

Sequence of GST-LIMK2 PDZ domain fusion protein (human LIM domain kinase 2 AA185-275; PDZ domain 1 of 1) (P08515 1-218, tags or fused parts left off): as above
T1 sequence (P08515 1-218, tags or fused parts left off): as above

Biotin-EVICYIEKPGVETLEDSVF [CDW125 (IL5R) C-terminal PL peptide AA28L, biotinylated]
binds: [24] | [25]
not listed: [26] | [27] | [28] | [29] | [30] | [31] | [32]
no binding: all other assays above

Biotin-ARKANMKGSYSLVEAQKSKV (also called CD106) [VCAM1 C-terminal PL peptide AA17L, biotinylated]
binds: [26] | [27] | [28] | [29] | [30]
not listed: [4] | [10] | [11] | [13] | [20] | [24] | [25]
no binding: all other assays above
